Results from patent publication US20070292390A1.

Legend:
[1] = biological target: tethered gp140 89.6 (HIV-1 isolate 89.6) (UniProt Q73372); experiment: competition ELISA; competitor (coated): Fab m48; biotinylated gp140 89.6; competing antibody at 12 µg/ml
[2] = biological target: tethered gp140 89.6 (HIV-1 isolate 89.6) (UniProt Q73372); experiment: competition ELISA; competitor (coated): Fab m47; biotinylated gp140 89.6; competing antibody at 12 µg/ml
[3] = biological target: tethered gp140 89.6 (HIV-1 isolate 89.6) (UniProt Q73372); experiment: competition ELISA; competitor (coated): Fab m44; biotinylated gp140 89.6; competing antibody at 12 µg/ml
[4] = biological target: tethered gp140 89.6 (HIV-1 isolate 89.6) (UniProt Q73372); experiment: competition ELISA; competitor (coated): Fab m43; biotinylated gp140 89.6; competing antibody at 12 µg/ml
[5] = biological target: tethered gp140 89.6 (HIV-1 isolate 89.6) (UniProt Q73372); experiment: competition ELISA; competitor (coated): Fab m45; biotinylated gp140 89.6; competing antibody at 12 µg/ml

**Q.** Which results are given for Fab Z13?
**A.** Inhibition, % [1]: 87%; Inhibition, % [2]: 41%; Inhibition, % [3]: 57%; Inhibition, % [4]: 72%; Inhibition, % [5]: 0%

**Q.** Which results are given for IgG 2F5 (antibody)?
**A.** Inhibition, % [1]: 74%; Inhibition, % [2]: 31%; Inhibition, % [3]: 38%; Inhibition, % [4]: 51%; Inhibition, % [5]: 0%

**Q.** How did the Inhibition, % [1] turn out when IgG 4E10 (antibody) was run?
**A.** The Inhibition, % was 63%.

**Q.** And the Inhibition, % [2]?
**A.** Its Inhibition, % is 10%.

**Q.** What about the Inhibition, % [3] of the same substance?
**A.** Its Inhibition, % is 42%.

**Q.** What about the Inhibition, % [4] of the same substance?
**A.** The Inhibition, % was 29%.

**Q.** What about the Inhibition, % [5] of the same substance?
**A.** Its Inhibition, % is 6%.
